# Positions count from the first letter of the chain named.
# B1: mutant nonamer (MN) 12-RSS (dsDNA)
# DNA 1: GATATGGCTCGTCTTACACAGTGATATAGACCTTAAGGCTCTGATCCAATCGAGCGGAG
# DNA 2: CTCCGCTCGATTGGATCAGAGCCTTAAGGTCTATATCACTGTGTAAGACGAGCCATATC
# B2: MBP-bZDD (domain or fragment, murine, UniProt P15919 218-380, looked up)
# chain: RGLKRKRHQPNVQLSKKLKTVLNHARRDRRKRTQARVSSKEVLKKISNCSKIHLSTKLLAVDFPAHFVKSISCQICEHILADPVETSCKHLFCRICILRCLKVMGSYCPSCRYPCFPTDLESPVKSFLNILNSLMVKCPAQDCNEEVSLEKYNHHVSSHKESK
# notes: RAG1, murine, residues 218-380 (basic region plus zinc dimerization domain, ZDD 265-380); Four zinc ions per monomer; Predicted dimeric mass 123,634 Da; also called MBP-RAG1(218-380); basic-zinc dimerization domain fused to MBP; source: E. coli BL21, purified (amylose resin, SEC); not shown: MBP, N-terminal, kept
# B3: WT 12-RSS (dsDNA)
# DNA 1: GATATGGCTCGTCTTACACAGTGATATAGACCTTAACAAAAACCTCCAATCGAGCGGAG
# DNA 2: CTCCGCTCGATTGGAGGTTTTTGTTAAGGTCTATATCACTGTGTAAGACGAGCCATATC
# B4: mutant heptamer (MH) 12-RSS (dsDNA)
# DNA 1: B3 DNA 1 with C17G, C19G, G21A, T22G, G23C
# DNA 2: B3 DNA 2 with C37G, A38C, C39T, G41C, G43C
# B5: WT 12-RSS, Oregon Green (dsDNA)
# DNA 1: B3 DNA 1
# DNA 2: B3 DNA 2
# Experiments:
# [1] = target: T1, MBP-CND (RAG1 central non-core domain) (murine, UniProt P15919 87-217); assay: competition; 1.5 uM MBP-CND, 1 nM labeled WT 12-RSS; EMSA: 10 mM Tris pH 8.0, 5 mM MgCl2, 2 mM DTT, 6% glycerol, 100 mM NaCl, 25 C, 1 nM 32P-DNA; 3.5/8% discontinuous nondenaturing gel; details: protein: recombinant; tags: N-terminal MBP; blunt
# T1 sequence: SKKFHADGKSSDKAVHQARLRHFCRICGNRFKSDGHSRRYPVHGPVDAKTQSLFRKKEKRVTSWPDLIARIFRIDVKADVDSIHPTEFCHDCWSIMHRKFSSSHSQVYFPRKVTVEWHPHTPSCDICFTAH
# [2] = target: the molecule itself; assay: SEC-MALS; MALLS-SEC of MBP fusion proteins, 20 mL Superdex 200, starting concentration 3-10 μM, GFB buffer (20 mM Tris pH 8.0, 0.2 M NaCl, 50 μM ZnCl2, 5 mM βME)
# MBP-bZDD = target: T2, MBP-bZDD (murine, UniProt P15919 218-380); assay: EMSA; 5 mM Mg2+; EMSA: 10 mM Tris pH 8.0, 5 mM MgCl2, 2 mM DTT, 6% glycerol, 100 mM NaCl, 25 C, 1 nM 32P-DNA; 3.5/8% discontinuous nondenaturing gel; details: protein: recombinant; tags: N-terminal MBP; chain copies: 2; blunt
# T2 sequence: B2 chain
# [3] = target: T1, MBP-CND (RAG1 central non-core domain); assay: EMSA; 5 mM Mg2+; range covers EMSA and anisotropy; EMSA: 10 mM Tris pH 8.0, 5 mM MgCl2, 2 mM DTT, 6% glycerol, 100 mM NaCl, 25 C, 1 nM 32P-DNA; 3.5/8% discontinuous nondenaturing gel; details: protein: recombinant; tags: N-terminal MBP; blunt
# [4] = target: T1, MBP-CND (RAG1 central non-core domain); assay: fluorescence anisotropy; range covers EMSA and anisotropy; EMSA: 10 mM Tris pH 8.0, 5 mM MgCl2, 2 mM DTT, 6% glycerol, 100 mM NaCl, 25 C, 1 nM 32P-DNA; 3.5/8% discontinuous nondenaturing gel; details: protein: recombinant; tags: N-terminal MBP; blunt
# [5] = target: T1, MBP-CND (RAG1 central non-core domain); assay: EMSA; 5 mM Mg2+; EMSA: 10 mM Tris pH 8.0, 5 mM MgCl2, 2 mM DTT, 6% glycerol, 100 mM NaCl, 25 C, 1 nM 32P-DNA; 3.5/8% discontinuous nondenaturing gel; details: protein: recombinant; tags: N-terminal MBP; label: 5' 32P; hairpin, fully complementary
# MBP-CND+bZDD = target: T3, MBP-CND+bZDD (murine, UniProt P15919 87-380); assay: as above; details: protein: recombinant; tags: N-terminal MBP; chain copies: 2; label: 5' 32P; hairpin, fully complementary
# T3 sequence: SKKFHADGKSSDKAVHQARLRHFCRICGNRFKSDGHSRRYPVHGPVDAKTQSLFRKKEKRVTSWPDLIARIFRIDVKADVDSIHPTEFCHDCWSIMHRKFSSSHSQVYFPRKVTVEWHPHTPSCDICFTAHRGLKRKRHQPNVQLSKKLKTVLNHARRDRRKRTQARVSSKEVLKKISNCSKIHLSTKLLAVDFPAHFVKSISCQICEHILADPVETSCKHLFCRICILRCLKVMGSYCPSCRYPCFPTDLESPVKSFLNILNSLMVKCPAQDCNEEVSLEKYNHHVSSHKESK
binder,measurement,setting,value
B1,binding result,[1],binds
B2,stoichiometry N,[2],2
B3,Kd,MBP-bZDD,~1730 nM
same,Kd,[3],1550 nM
B4,binding result,[1],binds
B5,Kd,[4],1550 nM
GATATGGCTCGTCTTATAAGACGAGCCATATC (structured_DNA) [32 nt hairpin coding flank],binding result,[5],binds
same,binding result,MBP-CND+bZDD,binds
